Results taken from patent US20040072319A1, “Molecules that modulate ubiquintin-dependent proteolysis and methods for identifying same” (priority 2003, published 2004).
Where “and” joins values, the source holds several entries; their conditions need not be identical. Equal values may be shown once. Square brackets hold non-standard residues; d marks the D form. Ends that are not written are not given here. Peptide text beside a SMILES is read from it. pY = N[C@@H](Cc1ccc(OP(=O)(O)O)cc1)C(=O)O; pT = C[C@@H](OP(=O)(O)O)[C@H](N)C(=O)O; pS = N[C@@H](COP(=O)(O)O)C(=O)O

Legend:
Cdc4-Skp1 complexes = target: T1, Cdc4-Skp1 complexes (Saccharomyces cerevisiae, UniProt P07834); assay: Peptide out-competition of phosphorylated substrates binding to Cdc4-Skp1; parameters: species or system yeast; settings: peptide 3, 17, 68 μM in FIG. 6f
T1 construct: made in house; host or cells: insect cells (baculovirus)
Excerpt: SCF complexes were purified from SF9 cells infected with recombinant baculoviruses and used in binding assays and ubiquitination reactions essentially as described (7). Gst-Skp1 expressed in BL21 codon plus cells (Stratagene) then purified on glutathione resin was used to capture full Cdc4 from insect cell lysates. Truncated forms of Cdc4 were enriched prior to Gst-Skp1 capture by affinity purification of hexahistidine fusion proteins on a metal chelate column. The Skp1-Cdc4 complexes were released from the Gst moiety by cleavage with TEV protease and further purified by size exclusion chromatography on a Superdex S75 or S200 column. Biotin labeled […]p[…] (SEQ ID NO. 1), […] (SEQ ID NO. 12), and APPLSQEpTFSDLWK (SEQ ID NO. 13) were synthesized by addition of d-biotin (Sigma) with an Fmoc-e-aminocaproic acid (Bachem) spacer to carboxy-terminal peptides. […] Streptavidin-agarose beads (Sigma) were incubated in the presence of biotinylated peptide for 90 min. at 4° C. Beads were washed 3 times and then incubated with lysates from Cdc4 expressing baculovirus infected Sf9 cells. Beads were washed 4 times, after which SDS-PAGE gel loading buffer was added and the beads were boiled for 5 min. Proteins were separated by SDS-PAGE and visualized by silver stain. Peptide out-competition of phosphorylated substrates was carried out with immunopurified Skp1^FLAG-Cdc4 from insect cells, which were incubated with phosphopeptides prior to addition of phospho-Sic1 or phospho-Cyclin E-Cdk2. For kinase inhibition assays, purified recombinant Clb5-Cdc28 complex (30 ng) was incubated with mutant forms of Sic1 (40 ng) and histone H1 (HH1, 2 μg) for 1 h on ice prior to addition of [^32P]-γ-ATP and incubation at 25° C. for 30 min. Samples were separated by SDS-PAGE and visualized by autoradiography.

Cdc4 = Cdc4 (Saccharomyces cerevisiae, UniProt P07834); assay: Fluorescence polarization equilibrium binding of peptides to Cdc4; parameters: made in house; host or cells: Cdc4: baculovirus-infected insect (Sf9) cells; Gst-Skp1: E. coli BL21 codon plus; species or system yeast
Description: Equilibrium binding constant determination was carried out using fluorescence polarization on a Beacon 2000 Fluorescence Polarization System (Pan Vera, Wis.) equipped with a 100 μL sample chamber. Fluorescein-labeled probes were prepared through the reaction of carboxyterminal-peptides with 5-(and-6)-carboxyfluorescein succinimidyl ester (Molecular Probes), purified by reverse-phase HPLC, and confirmed by mass spectrometry. Binding studies were conducted with 5 nM fluorescein-labeled probe dissolved in PBS containing 100 μg/ml BSA and 1 mM dithiothreitol. Reaction mixtures were allowed to equilibrate for 10 minutes at room temperature prior to each measurement. All fluorescence polarization measurements were conducted at 22° C.

Skp1-Cdc4 complex [1] = target: T2, Skp1-Cdc4 complex (yeast, UniProt P07834 1-779; P52286 1-194, limits assumed); assay: fluorescence polarization, 5 nM fluorescein-labeled peptide, Cdc4/Skp1 titrated
T2 construct: Purified complex (Gst removed by TEV, size exclusion) for fluorescence polarization and SPOTS arrays; also called Cdc4/Skp1; cdc4/skp1 complex

Skp1-Cdc4 complex [2] = target: T2, Skp1-Cdc4 complex; assay: fluorescence polarization
[3] = K, (μM), Table 1, average of at least 3 sets of readings, ± SEM, ND = no binding detected up to [Cdc4/Skp1] of 10 μM, ˜ = saturation binding not achieved
[4] = dissociation constant Kd for Cdc4

T2 sequence (P07834 whole entry, chain 1 of 2): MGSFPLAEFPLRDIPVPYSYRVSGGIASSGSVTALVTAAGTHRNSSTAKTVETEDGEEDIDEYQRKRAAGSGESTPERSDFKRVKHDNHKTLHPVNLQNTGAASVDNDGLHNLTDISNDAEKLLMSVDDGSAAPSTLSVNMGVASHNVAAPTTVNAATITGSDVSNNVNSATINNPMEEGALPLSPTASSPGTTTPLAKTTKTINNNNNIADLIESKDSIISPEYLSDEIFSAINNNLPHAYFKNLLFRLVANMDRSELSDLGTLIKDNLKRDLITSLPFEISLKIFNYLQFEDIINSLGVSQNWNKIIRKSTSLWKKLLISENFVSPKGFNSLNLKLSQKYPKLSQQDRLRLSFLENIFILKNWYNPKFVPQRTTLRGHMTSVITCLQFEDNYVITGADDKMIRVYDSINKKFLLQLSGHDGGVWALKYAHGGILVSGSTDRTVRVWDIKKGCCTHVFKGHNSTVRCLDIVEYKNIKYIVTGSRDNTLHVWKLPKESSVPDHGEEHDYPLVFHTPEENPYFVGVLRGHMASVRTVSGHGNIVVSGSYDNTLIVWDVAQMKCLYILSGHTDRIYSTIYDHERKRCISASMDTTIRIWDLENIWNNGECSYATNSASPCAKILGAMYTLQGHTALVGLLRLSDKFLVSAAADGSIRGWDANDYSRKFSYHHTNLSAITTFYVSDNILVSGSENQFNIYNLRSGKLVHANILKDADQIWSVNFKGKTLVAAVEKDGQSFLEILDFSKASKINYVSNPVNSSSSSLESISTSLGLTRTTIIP
T2 sequence (P52286 whole entry, chain 2 of 2): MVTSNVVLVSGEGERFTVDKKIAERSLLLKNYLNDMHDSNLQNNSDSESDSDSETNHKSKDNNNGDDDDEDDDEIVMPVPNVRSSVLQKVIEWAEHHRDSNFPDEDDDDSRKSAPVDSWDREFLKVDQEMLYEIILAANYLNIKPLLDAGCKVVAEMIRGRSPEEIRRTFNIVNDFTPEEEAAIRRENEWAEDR
T1 sequence (P07834 whole entry): as the sequence (P07834 whole entry, chain 1 of 2) above
T1 sequence (P52286 whole entry partner): as the sequence (P52286 whole entry, chain 2 of 2) above

For “PKPLNLSKPIpSPPPSLKKTA (PKPLNLSKPI[pS]PPPSLKKTA) [Far 1 pS87]”, the “competition with substrates (Sic1, cyclin E1, Far1) for binding to Cdc4” value (“competition with substrates” below) (Cdc4-Skp1 complexes) was “nor block the interaction” and the “binding to Cdc4 (in words)” value (Cdc4) was “could neither bind stably to Cdc4”.

Molecule `CSCC[C@H](NC(=O)[C@@H]1CCCN1C(=O)[C@@H]1CCCN1C(=O)[C@@H](NC(=O)[C@@H](NC(=O)[C@@H]1CCCN1C(=O)[C@@H]1CCCN1C(=O)c1ccc2c(c1)C(=O)OC21c2ccc(O)cc2Oc2cc(O)ccc21)C(C)C)[C@@H](C)OP(=O)(O)O)C(=O)N[C@@H](CO)C(=O)N1CCC[C@H]1C(=O)O` [Ash 1 pT290, PPVpTPPMSP] (HELM PEPTIDE1{[O=C1OC2(c3ccc(O)cc3Oc3cc(O)ccc32)c2ccc(C(=O)[*:2])cc21].P.P.V.[C[C@@H](OP(=O)(O)O)[C@H](N[*:1])C(=O)[*:2]].P.P.M.S.P}$$$$V2.0) has a Kd (Cdc4; [3]) of roughly 25 µM.

In the case of `CC[C@H](C)[C@H](NC(=O)[C@@H]1CCCN1C(=O)[C@@H](NC(=O)[C@H](CC(C)C)NC(=O)[C@H](CC(C)C)NC(=O)[C@H](CCC(=O)O)NC(=O)c1ccc2c(c1)C(=O)OC21c2ccc(O)cc2Oc2cc(O)ccc21)[C@@H](C)OP(=O)(O)O)C(=O)N[C@@H](CC(C)C)C(=O)N[C@@H](C)C(=O)N[C@@H](Cc1ccccc1)C(=O)O` [Pc17, ELLpTPILAF] (HELM PEPTIDE1{[O=C1OC2(c3ccc(O)cc3Oc3cc(O)ccc32)c2ccc(C(=O)[*:2])cc21].E.L.L.[C[C@@H](OP(=O)(O)O)[C@H](N[*:1])C(=O)[*:2]].P.I.L.A.F}$$$$V2.0), the Kd (Cdc4; [3]) is reported as roughly 40 µM.

For CycEK2-9mer GLLpTPKQSG (peptide), the Kd (Skp1-Cdc4 complex [1]) was 6.3 µM.

With `CC(C)C[C@H](NC(=O)CNC(=O)c1ccc2c(c1)C(=O)OC21c2ccc(O)cc2Oc2cc(O)ccc21)C(=O)N[C@@H](CC(C)C)C(=O)N[C@H](C(=O)N1CCC[C@H]1C(=O)N1CCC[C@H]1C(=O)N[C@@H](CCC(N)=O)C(=O)N[C@@H](CO)C(=O)NCC(=O)O)[C@@H](C)OP(=O)(O)O` [CycE-9mer, GLLpTPPQSG] (HELM PEPTIDE1{[O=C1OC2(c3ccc(O)cc3Oc3cc(O)ccc32)c2ccc(C(=O)[*:2])cc21].G.L.L.[C[C@@H](OP(=O)(O)O)[C@H](N[*:1])C(=O)[*:2]].P.P.Q.S.G}$$$$V2.0) the Kd (Cdc4; [3]) was 1 ± 0.05 µM.

In the case of CycEK-2-9mer GKLpTPPQSG (peptide), the Kd (Skp1-Cdc4 complex [1]) is reported as 12 µM.

CycEK3-9mer GLLpTPPKSG (peptide) showed a Kd (Skp1-Cdc4 complex [1]) of 5.1 µM.

CycEK4-9mer GLLpTPPQKG (peptide) showed a Kd (Skp1-Cdc4 complex [1]) of 4.3 µM.

Molecule `CC(C)C[C@H](NC(=O)CNC(=O)c1ccc2c(c1)C(=O)OC21c2ccc(O)cc2Oc2cc(O)ccc21)C(=O)N[C@@H](CC(C)C)C(=O)N[C@@H](COP(=O)(O)O)C(=O)N1CCC[C@H]1C(=O)N1CCC[C@H]1C(=O)N[C@@H](CCC(N)=O)C(=O)N[C@@H](CO)C(=O)NCC(=O)O` [CycEpS-9mer, GLLpSPPQSG] (HELM PEPTIDE1{[O=C1OC2(c3ccc(O)cc3Oc3cc(O)ccc32)c2ccc(C(=O)[*:2])cc21].G.L.L.[O=C([C@H](COP(=O)(O)O)N[*:1])[*:2]].P.P.Q.S.G}$$$$V2.0) has a Kd (Cdc4; [4]) of 6 µM.

In the case of VPVpTPSTTK (VPV[pT]PSTTK) [SicpT45], the “competition with substrates” value (Cdc4-Skp1 complexes) is reported as “nor block the interaction” and the “binding to Cdc4 (in words)” value (Cdc4) is reported as “could neither bind stably to Cdc4”.

For `CC(C)C[C@H](NC(=O)[C@@H](NC(=O)[C@@H]1CCCN1C(=O)[C@@H](NC(=O)[C@@H]1CCCN1C(=O)[C@H](CC(C)C)NC(=O)[C@H](Cc1ccccc1)NC(=O)c1ccc2c(c1)C(=O)OC21c2ccc(O)cc2Oc2cc(O)ccc21)[C@@H](C)OP(=O)(O)O)C(C)C)C(=O)N[C@@H](CCC(=O)O)C(=O)N[C@@H](CC(=O)O)C(=O)O` [Gcn4-9mer, FLPpTPVLED] (HELM PEPTIDE1{[O=C1OC2(c3ccc(O)cc3Oc3cc(O)ccc32)c2ccc(C(=O)[*:2])cc21].F.L.P.[C[C@@H](OP(=O)(O)O)[C@H](N[*:1])C(=O)[*:2]].P.V.L.E.D}$$$$V2.0), the Kd (Cdc4; [4]) was 0.675 µM and 0.88 µM.

CycEK5-9mer GLLpTPPQSK (peptide) showed a Kd (Skp1-Cdc4 complex [1]) of 2.4 µM.

For `CC(=O)NCCCC[C@H](NC(=O)[C@@H]1CCCN1C(=O)[C@@H]1CCCN1C(=O)[C@@H](NC(=O)[C@H](CC(C)C)NC(=O)[C@H](CC(C)C)NC(=O)CNC(=O)c1ccc2c(c1)C(=O)OC21c2ccc(O)cc2Oc2cc(O)ccc21)[C@@H](C)OP(=O)(O)O)C(=O)N[C@@H](CO)C(=O)NCC(=O)O` [CycEK3Ac-9mer, GLLpTPPK(Ac)SG] (HELM PEPTIDE1{[O=C1OC2(c3ccc(O)cc3Oc3cc(O)ccc32)c2ccc(C(=O)[*:2])cc21].G.L.L.[C[C@@H](OP(=O)(O)O)[C@H](N[*:1])C(=O)[*:2]].P.P.K.S.G}|PEPTIDE2{[ac]}$PEPTIDE1,PEPTIDE2,8:R3-1:R2$$$V2.0), the Kd (Cdc4; [3]) was 1 ± 0.1 µM.

In the case of GLLpYPPQSG (GLL[pY]PPQSG) [CycEpY-9mer], the “binding to Cdc4 (in words)” value (Cdc4) is reported as “failed to bind”.

In the case of CycEK-1-9mer GLKpTPPQSG (peptide), the Kd (Skp1-Cdc4 complex [1]) is reported as 6 µM.

Work on `CC[C@H](C)[C@H](NC(=O)[C@H](CC(C)C)NC(=O)[C@H](CCC(N)=O)NC(=O)[C@H](CCC(=O)O)NC(=O)[C@H](CCC(N)=O)NC(=O)[C@@H]1CCCN1C(=O)[C@@H](NC(=O)[C@H](Cc1ccccc1)NC(=O)[C@H](CCC(N)=O)NC(=O)[C@@H]1CCCN1C(=O)[C@H](Cc1ccccc1)NC(=O)[C@H](CCC(=O)O)NC(=O)CNC(=O)[C@@H](NC(=O)c1ccc2c(c1)C(=O)OC21c2ccc(O)cc2Oc2cc(O)ccc21)[C@@H](C)O)[C@@H](C)OP(=O)(O)O)C(=O)O` [FarpT306, TGEFPQFpTPQEQLI] (HELM PEPTIDE1{[O=C1OC2(c3ccc(O)cc3Oc3cc(O)ccc32)c2ccc(C(=O)[*:2])cc21].T.G.E.F.P.Q.F.[C[C@@H](OP(=O)(O)O)[C@H](N[*:1])C(=O)[*:2]].P.Q.E.Q.L.I}$$$$V2.0) yielded a Kd (Cdc4; [3]) of roughly 25 µM.

With CycE-5mer LLpTPP (peptide) the Kd (Skp1-Cdc4 complex [1]) was 0.85 µM.

For “Sic1 15-pT45: Sic1 phosphopeptide centered on pT45; possibly the SicpT45 peptide of Table 1”, the “competition with substrates” value (Cdc4-Skp1 complexes) was “does not measurably bind Cdc4 or compete with substrates” and the “binding to Cdc4 (in words)” value (Cdc4) was “does not measurably bind Cdc4”.

PKPLNLSKPI[pS]PPPSLKKTA [Far 1 pS87 peptide PKPLNLSKPIpSPPPSLKKTA]: no binding (tested: up to [Cdc4/Skp1] of 10 µM) (Skp1-Cdc4 complex [2]).

B1: SicpT45 peptide VPVpTPSTTK (peptide)
peptide: VPV[pT]PSTTK
notes: also called Sic1 pT45 phosphopeptide; Sic1 15-pT45 peptide
B1: no binding (tested: up to [Cdc4/Skp1] of 10 µM) (Skp1-Cdc4 complex [2]).

GLL[pT]APQSG [CycEA1-9mer GLLpTAPQSG]: no binding (tested: up to [Cdc4/Skp1] of 10 µM) (Skp1-Cdc4 complex [2]).

GLL[pY]PPQSG (also called CycE19-pY380) [CycEpY-9mer GLLpYPPQSG]: no binding (tested: up to [Cdc4/Skp1] of 10 µM) (Skp1-Cdc4 complex [2]).

NVQ[pT]PTLMA (also called Pcl2) [Pc12 peptide NVQpTPTLMA]: no binding (tested: up to [Cdc4/Skp1] of 10 µM) (Skp1-Cdc4 complex [2]).

VEQ[pT]PKKPG [p27pT187 peptide VEQpTPKKPG]: no binding (tested: up to [Cdc4/Skp1] of 10 µM) (Skp1-Cdc4 complex [2]).
